Literature values, collected in publication PMC13348789.
pKd: −log10 of the molar value.

Biological target: IL-2Rβ/γc intermediate-affinity receptor (Homo sapiens) (UniProt P14784)
UniProt P14784, sequence (P14784 27-240, chain 1 of 2): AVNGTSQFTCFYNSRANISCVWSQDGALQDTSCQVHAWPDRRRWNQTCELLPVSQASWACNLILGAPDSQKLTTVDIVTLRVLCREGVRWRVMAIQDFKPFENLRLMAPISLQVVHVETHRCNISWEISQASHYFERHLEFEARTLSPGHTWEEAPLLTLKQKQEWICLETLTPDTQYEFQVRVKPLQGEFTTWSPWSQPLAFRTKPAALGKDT
UniProt P14784, sequence (P31785 23-262, chain 2 of 2, further chain): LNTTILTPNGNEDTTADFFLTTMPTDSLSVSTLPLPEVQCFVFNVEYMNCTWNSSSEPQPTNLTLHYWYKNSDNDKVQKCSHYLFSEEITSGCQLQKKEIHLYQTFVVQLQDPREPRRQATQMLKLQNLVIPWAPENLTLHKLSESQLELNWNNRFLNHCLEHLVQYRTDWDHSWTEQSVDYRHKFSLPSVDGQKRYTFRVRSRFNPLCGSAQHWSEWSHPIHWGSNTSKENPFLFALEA

## IL-2 (from UniProt P60568)
  pKd: 9.00
